The values that follow come from paper doi:10.1101/2023.11.02.23297943 (medRxiv, 2023).

This data set concerns the molecule itself. Description: cross-linking.

B1: mitochondrial single-stranded DNA-binding protein 1 (SSBP1), wild-type recombinant protein (natural protein, human, UniProt Q04837 17-148, looked up)
chain: ESETTTSLVLERSLNRVHLLGRVGQDPVLRQVEGKNPVTIFSLATNEMWRSGDSEVYQLGDVSQKTTWHRISVFRPGLRDVAYQYVKKGSRIYLEGKIDYGEYMDKNNVRRQATTIIADNIIFLSDQTKEKE
As to B1, the binding result was “binds”.

B2: SSBP1 p.Arg91Gln mutant, recombinant protein (natural protein, human, UniProt Q04837 17-148, looked up)
chain: ESETTTSLVLERSLNRVHLLGRVGQDPVLRQVEGKNPVTIFSLATNEMWRSGDSEVYQLGDVSQKTTWHRISVFQPGLRDVAYQYVKKGSRIYLEGKIDYGEYMDKNNVRRQATTIIADNIIFLSDQTKEKE
For the protein B2, the “percent of dimers formed, compared to wild-type” value was 37.4 % of wild-type; the “percent of tetramers formed, compared to wild-type” value is 20.5 % of wild-type; the “percent of trimers formed, compared to wild-type” value is 12.7 % of wild-type.
